Source: PMC7877763 (2021)

Legend:
[1] = target: full length pepsinized type I collagen from mouse tail tendon (mouse, UniProt P11087 152-1207; Q01149 86-1125); experiment: SPR
[2] = target: GPR-foldon (foldon stabilized collagen model peptide containing a (GPP)5GPR(GPP)6 collagen sequence) (biotinylated (site not stated) for the BLI experiment); experiment: BLI

Chain of full length pepsinized type I collagen from mouse tail tendon (P11087 152-1207, chain 1 of 2): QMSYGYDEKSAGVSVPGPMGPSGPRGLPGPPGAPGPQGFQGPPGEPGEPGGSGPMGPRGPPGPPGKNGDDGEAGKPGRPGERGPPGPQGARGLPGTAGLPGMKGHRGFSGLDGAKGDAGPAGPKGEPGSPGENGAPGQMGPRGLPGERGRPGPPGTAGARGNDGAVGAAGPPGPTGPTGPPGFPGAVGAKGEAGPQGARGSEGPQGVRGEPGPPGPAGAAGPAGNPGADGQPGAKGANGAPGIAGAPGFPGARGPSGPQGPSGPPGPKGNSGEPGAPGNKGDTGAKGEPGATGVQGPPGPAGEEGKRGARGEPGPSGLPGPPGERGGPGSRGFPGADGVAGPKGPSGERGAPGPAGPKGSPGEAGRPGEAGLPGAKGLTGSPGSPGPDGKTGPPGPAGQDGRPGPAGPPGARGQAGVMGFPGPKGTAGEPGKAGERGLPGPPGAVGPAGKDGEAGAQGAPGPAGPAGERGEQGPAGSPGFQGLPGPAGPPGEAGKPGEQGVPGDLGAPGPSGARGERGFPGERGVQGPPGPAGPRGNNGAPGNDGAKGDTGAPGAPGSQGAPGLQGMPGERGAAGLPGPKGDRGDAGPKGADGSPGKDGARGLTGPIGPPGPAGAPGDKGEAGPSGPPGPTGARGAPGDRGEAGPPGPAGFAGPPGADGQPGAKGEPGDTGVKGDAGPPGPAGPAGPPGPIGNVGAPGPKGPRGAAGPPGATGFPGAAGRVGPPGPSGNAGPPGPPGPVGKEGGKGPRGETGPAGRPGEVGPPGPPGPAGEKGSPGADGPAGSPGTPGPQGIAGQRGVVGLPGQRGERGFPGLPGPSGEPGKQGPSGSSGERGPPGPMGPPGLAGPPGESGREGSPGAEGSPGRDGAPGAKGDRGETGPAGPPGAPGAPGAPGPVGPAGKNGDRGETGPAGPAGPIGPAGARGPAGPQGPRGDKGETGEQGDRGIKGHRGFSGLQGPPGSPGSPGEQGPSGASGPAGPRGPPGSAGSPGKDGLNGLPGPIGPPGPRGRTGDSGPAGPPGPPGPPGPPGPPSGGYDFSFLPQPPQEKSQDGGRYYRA
Chain of full length pepsinized type I collagen from mouse tail tendon (Q01149 86-1125, chain 2 of 2): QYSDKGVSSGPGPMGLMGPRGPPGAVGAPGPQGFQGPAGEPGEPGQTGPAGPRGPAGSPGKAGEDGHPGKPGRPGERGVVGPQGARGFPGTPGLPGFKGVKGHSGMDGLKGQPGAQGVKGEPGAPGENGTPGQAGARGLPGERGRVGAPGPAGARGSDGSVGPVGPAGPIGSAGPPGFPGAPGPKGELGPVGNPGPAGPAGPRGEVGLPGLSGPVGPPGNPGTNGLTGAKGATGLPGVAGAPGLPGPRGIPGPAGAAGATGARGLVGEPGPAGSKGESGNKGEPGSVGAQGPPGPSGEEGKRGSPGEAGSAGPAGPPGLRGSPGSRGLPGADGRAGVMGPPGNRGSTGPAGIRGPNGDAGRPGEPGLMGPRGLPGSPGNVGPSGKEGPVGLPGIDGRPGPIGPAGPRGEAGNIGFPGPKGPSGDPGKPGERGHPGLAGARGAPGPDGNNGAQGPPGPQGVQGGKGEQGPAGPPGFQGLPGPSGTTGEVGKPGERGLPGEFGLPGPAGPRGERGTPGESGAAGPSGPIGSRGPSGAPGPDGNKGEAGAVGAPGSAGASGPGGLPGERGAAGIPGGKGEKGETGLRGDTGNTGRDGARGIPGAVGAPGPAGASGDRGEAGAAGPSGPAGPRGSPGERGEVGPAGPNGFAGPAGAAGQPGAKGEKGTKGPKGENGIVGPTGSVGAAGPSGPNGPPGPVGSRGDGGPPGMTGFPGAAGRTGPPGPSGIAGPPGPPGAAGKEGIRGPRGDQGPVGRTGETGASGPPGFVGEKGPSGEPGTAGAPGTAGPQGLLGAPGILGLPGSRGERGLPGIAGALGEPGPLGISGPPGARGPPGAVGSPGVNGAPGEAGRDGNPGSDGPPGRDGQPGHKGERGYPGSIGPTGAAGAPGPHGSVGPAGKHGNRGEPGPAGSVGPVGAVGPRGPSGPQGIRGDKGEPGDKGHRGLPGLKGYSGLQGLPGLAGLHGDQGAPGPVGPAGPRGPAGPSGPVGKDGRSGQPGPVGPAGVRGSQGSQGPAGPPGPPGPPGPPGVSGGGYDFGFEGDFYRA

B1: recombinant canine HSP47-R222S (natural protein)
chain: LSPKAATLAERSAGLAFSLYQAMAKDQAVENILLSPVVVASSLGLVSLGGKATTASQAKAVLSAEQLRDEEVHAGLGELLRSLSNSTARNVTWKLGSRLYGPSSVSFAEDFVRSSKQHYNCEHSKINFRDKRSALQSINEWAAQTTDGKLPEVTKDVERTDGALLVNAMFFKPHWDEKFHHKMVDNSGFMVTRSYTVGVTMMHRTGLYNYYDDEKEKLQIVEMPLAHKLSSLIILMPHHVEPLERLEKLLTKEQLKIWMGKMQKKAVAISLPKGVVEVTHDLQKHLAGLGLTEAIDKNKADLSRMSGKKDLYLASVFHATAFEWDTEGNPFDQDIYGREELRSPKLFYADHPFIFLVRDTQSGSLLFIGRLVRPKGDKMRDEL
For B1, the koff [1] was 0.003 s⁻¹ and the koff [2] was 0.0186 s⁻¹.

B2: recombinant wild-type canine HSP47 (natural protein)
chain: LSPKAATLAERSAGLAFSLYQAMAKDQAVENILLSPVVVASSLGLVSLGGKATTASQAKAVLSAEQLRDEEVHAGLGELLRSLSNSTARNVTWKLGSRLYGPSSVSFAEDFVRSSKQHYNCEHSKINFRDKRSALQSINEWAAQTTDGKLPEVTKDVERTDGALLVNAMFFKPHWDEKFHHKMVDNRGFMVTRSYTVGVTMMHRTGLYNYYDDEKEKLQIVEMPLAHKLSSLIILMPHHVEPLERLEKLLTKEQLKIWMGKMQKKAVAISLPKGVVEVTHDLQKHLAGLGLTEAIDKNKADLSRMSGKKDLYLASVFHATAFEWDTEGNPFDQDIYGREELRSPKLFYADHPFIFLVRDTQSGSLLFIGRLVRPKGDKMRDEL
B2 showed a koff [1] of 0.011 s⁻¹ and a koff [2] of 0.0185 s⁻¹.
